Reference: the supplement of paper PMC9170038

System: K4 kissing-loop RNA reporter
Test: apparent KD of K4 kissing-loop reporter; higher = weaker reporter binding
Conditions: Eterna round: R107
Procedure: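 RNA-MaP round R107: designed RNA switches with theophylline, tryptophan, arginine or FMN aptamers are transcribed on-chip within common flanks. They are titrated with a labelled K4 kissing-loop RNA reporter in RNA-MaP buffer (100 mM Tris pH 7.5, 80 mM KCl, 4 mM MgCl2), without ligand or with the indicated ligand. Median apparent KD per design.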

[1] = input ligand: theophylline 20 uM
[2] = input ligand: tryptophan 2.4 mM
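Also: bound reporter read as fluorescence of individual clusters on recovered sequencing chips by microscopy, with normalized cluster intensities fitted with a binding model.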

Sequence | apparent KD of K4 kissing-loop reporter (input ligand: FMN 200 uM) [nM] | apparent KD of K4 kissing-loop reporter (input ligand: arginine 13.2 mM) [nM] | apparent KD of K4 kissing-loop reporter (input ligand: none) [nM] | apparent KD of K4 kissing-loop reporter [1] [nM] | apparent KD of K4 kissing-loop reporter [2] [nM]
GGUUCCUCAGUGAUGUUGAGGUGACCUCGGCAGGAUAUAGGCAUUACUAGAAGGGCCAAAUGAACCCUGUCCAGCGGCACAGGGA [Arleorbile] | 147 | 213 | 331 | 298 | 252
AAUAAUCUAGGUGAUACCAGCUCAACAUGAGUGAUGUUCAUGAAAUAAUGUAGAGUUGAGAGCCCUUGGCAGCACCUAGAUAAUA [KL-SSTheoB5] | 264 | 222 | 239 | 178 | 240
UGUACCGAGUCAGGAUAUAGCGUCGAAAGACGAAAUGGAGUGAUGUUCCUUAAACUGCGAAAGCAGCUAGAAGGGACUUGGUACU [FmnBS 28 #SwitchBubble #StaticStem #DoubleMagnetSystem] | 153 | 234 | 246 | 250 | 239
AAGCAGUCACUCGUAACCAUCGAAGAUGGUCGAGGACCGGUACGGCCGCCACUCGGAGUGAUGUUCCGAAGACUGCAAAAUAAAA [#SwitchBubble 12] | 237 | 238 | 299 | 292 | 607
UGUCAUUGGUCGGCCGCCACUAUAAUAAAAGAGUGAUGUUCUAAAAGACGGACAAAAGUCUGUCGUAGGACCGGGACCGAUGACU [TrypBS 26 #SwitchBubble #StaticStem] | 1100 | 551 | 805 | 916 | 455
AUAAACUUGCAGUGAUGUUGCAAGUAAGACUAGGAUAUCAGGAAACUGAGAAGGAGUCAUCUCCUUCACUUGCAACUAGGAGGAG [[K1]-[K2]-[F1]-[F2]-[F]'-[K]'-[F]''_Design6] | 122 | 93.4 | 143 | 144 | 133
ACGAAUCCAGCGGCCGCCACUAUUCGAUGAGUGAUGUUUAGGAGUAGAUCAUACCGCCGUGGUAAUAGGACCGGGCUCUUUGUAG [theeternabot_exclusion_KL_Trp_B_36] | 289 | 129 | 201 | 193 | 207
AUUCUUUUUUUGAUGUUUUUUGUAUAAUGGCAGGAUAUCGUAGAAGCGAGAAGGGCUUUUAUGCGUUAUGAGUGAUGUUUGUAGG [szeewvmullin] | 254 | 262 | 261 | 340 | 205
CGUUUAUAGCAGGAUACCAGUACGGAUAAAGUACGUUAAUAGUAGAGUGAUGUUCUAAAGUACCCUUGGCAGCUUAGAGUGAGUG [ExTheophylB.O] | 107 | 149 | 112 | 144 | 78.1
GUCCGGAAGGCGGCUUCACGACCGUGGUGGGAGGAUAUGUCUAAGGACAGAAGGCCCAGUGAUGUUGGGCUUUAGGAGAGCCAUA [Ragele] | 310 | 128 | 143 | 116 | 118
UACUAUAGUGAUGUUAUAGAUAAACCAGAUACCAGUGUAACAUAACACCCUUGGCAGCUGAUAAGGGAAAGUAUAAAUGUGUAUU [AstrosSSTHe-A#3newdesignED] | 230 | 198 | 228 | 219 | 205
UAAUUUAUGUCUUUAAUAUAAUAAUCAGAUACCAGUGAUUUAUGACACCCUUGGCAGCUGUAUAGAGUGAUGUUCUUAUACAUAA [JR_Nu_ExcTheophyA_Sub020] | 388 | 504 | 483 | 547 | 294
UUUUUAUGCAGUGAUGUUGCUAAUAUAACAGAGGAUAUGCAUUAAAGCAGAAGGCUGAAAUACUAUACUUUAAUAAAUUAAAUUU [JR_SSFMNA_Sub013] | 94.2 | 136 | 107 | 144 | 82.7
GUUGUAUACUGAAGGAGCGAGUAGUGGAAACAUAAACUCAUUGCGAGUGAUGUUCGCGGUACUCAGGUAGGUCGCGGUAAUCGUA [Exclusion Arginine B Gf 11] | 820 | 328 | 800 | 485 | 403
AUCGUUGUCUGAGGAUAUCGUUUUACUGUAGUGAUGUUACAGAAAAUUCACAUUAUAAUUUCUAUUCGAGAAGGCAGACUACGUA [JR_ExcFMNB_Sub015] | 134 | 112 | 120 | 114 | 120
AGUGAUGUGGGAAGGAGCGCUAUAAGACUUCAGUGAUGUUGAAGUGCUGGUUUAGUGUUGUAGCAGGUAGGUCGCCUAGAUGUUA [KL-XARG-B11] | 293 | 239 | 275 | 196 | 218
AAUAAAAUCACGGCCGCCACUGAUACUAAUAUUAGCAGUGAUGUUGCUAUGUAUAAUUUAUUAAACAGGACCGGGUGAAUAUUUA [JR_ExcTryptoB_Sub015] | 159 | 129 | 126 | 150 | 114
GCGAAGAGAGAAGGAUAUUAGUAAUGCGUCAUGCGCCCUUACCAGUUAGUGAUGUUAACAAUACAUUAAGAAGGUCUCGGAAUCC [theeternabot_sameState_KL_FMN_B_50] | 297 | 169 | 187 | 215 | 185
UAAAUUAUCUGAAGGAGCGUGAAAUAAUAUUAAACAUAACAACCCAGUGAUGUUGGGUUAUCACAGGUAGGUCGCAGAUGUAGAU [Same State Arginie B GF 24] | 95.6 | 113 | 98 | 118 | 85.5
AAAAUAAAAGCAGUCAUCGGAGUGAUGUUCCGAGGACCGGUACGGCCGCCACUCGACCAGACAAAGUCUGGAUGGCGAGACUGCA [#SwitchBubble 18 #K4Early] | 83.6 | 85.1 | 102 | 91.4 | 85.6
UUAGCUCUAUAGAGCAAGAGGUAUACUGAUACCAGAGGCUAUAGCCUCCCUUGGCAGCGGAACGAGUGAUGUUCGAAACCUCAUU [AK5 SS Theophylline A] | 754 | 898 | 940 | 799 | 526
AACUGUCAAGGACAACAUUACUGAGGUGAUACCAGCAUCGAAAGAUGCCCUUGGCAGCACCGACUUGCAGUGAUGUUGCAAGUAA [BrourdMod 11 - Jieux - Exclusion - Theophylline A] | 271 | 219 | 249 | 322 | 247

Sequence | apparent KD of K4 kissing-loop reporter (input ligand: FMN 200 uM) [nM] | apparent KD of K4 kissing-loop reporter (input ligand: arginine 13.2 mM) [nM] | apparent KD of K4 kissing-loop reporter (input ligand: none) [nM] | apparent KD of K4 kissing-loop reporter [1] [nM] | apparent KD of K4 kissing-loop reporter [2] [nM]
UGAUAGGACAGAAGGAGCGGGAGUGAUGUUCCCAAAAGUAUAAGGUGUCAAAAGACACCCUCCCAGGUAGGUCGCUGUCCUAUCU | 153 | 330 | 353 | 302 | 367
CGCAGUGAUGUUGCUUAUAUUCUUGGUUAACGAGGACCGGUACGGCCGCCACUCGAUUUCUAUCUAUUCCAGUGUUAAUUUGAGU [JR_ExcTryptoA_Sub005] | 364 | 429 | 419 | 568 | 271
AUCGUUGUCUGAGGAUAUCGGUUAUCUGUAGUGAUGUUACAGUAUAUUCAUAUUAUACUUUCUAUUCGAGAAGGCAGACUACGUA [JR_Nu_ExcFMNB_Sub020] | 169 | 80.5 | 82.5 | 74.8 | 82.9
GCGAACAUUCGCAGUGAUGUUGCGACGGAAGGAGCGCGUGAAAACGCAGGUAGGUCGCCGACAACAUUAAUUUUAAUGUGUUCGC [Arginine A K4 28] | 411 | 308 | 425 | 356 | 256
AGGUGGGACGUAGGAUAUCCCUAAUGAUUUACUUCCUGGUUGCUACGCUUCCAGUGAUGUUGGAAGGGAGAAGGACGGGCGAGUU [Riatbive] | 365 | 217 | 213 | 217 | 222
GGAUCCACCAGUGAUGUUGGAGUAAUCUCCAAGGAUAUGACGAAAGUCAGAAGGUGGUAAAUAGACGUCAAAGACGUCGGAUCCA [FmnA 22 #SwitchBubble #K4Early] | 499 | 78.3 | 97.9 | 234 | 69
GUCCAACCUGGAGGAUAUCUGCUGUCCAGUGAUGUUGGACACCUUAGUAAAGGCCGGGUAGCCCGCAGAGAAGGCCGGAGUUGCC [Isateron] | 265 | 354 | 429 | 390 | 329
AUGUACAUUCUCAGUGAUGUUGGGUUGUAACGAGGACCGGUACGGCCGCCACUCGGGAUGUGGUAUAUAGAUGUAUGUGUAGCAU [skye_SS_TA] | 612 | 271 | 446 | 512 | 439
GACGUUGAAGCGGCCGCCACUAGGAAGGGUACGGAGAGUACAUCUCACGGAGAGUGAUGUUCUCAUAGGACCGGGCUCAUAUCAA [theeternabot_sameState_KL_Trp_B_21] | 308 | 215 | 605 | 238 | 362
GCUAGCAUGGCAGGAUAUAGCAAUAGGAGUGAUGUUCCUUGGUAGGUGAGUGAUGUUCACUACCAACUAGAAGGGCCAUGCUAGC | 139 | 111 | 126 | 108 | 129
AAGUGUGUGGCGGCCGCCACUAGAAUCCAGUGAUGUUGGAGAUAUCACGUAAGUGAUAUCCAUCAUAGGACCGGGCCAUAUAGAA [Same State - Tryptophan B (Freestyle 18)] | 675 | 389 | 945 | 1280 | 755
CGUAGCAGAUGAAGGAGCGGCUACCUGUAUCAGGCAACUGCCUGAGUGAUGUUCAGGUAUAGCCAGGUAGGUCGCAUCUGCUACG [Arg B Ex t9b] | 240 | 206 | 214 | 211 | 212
AAAAUUAAGGCCGAAUAAACUUAUUUCAUACGAGGACCGGUACGGCCGCCACUCGAGUCAAGUGAUGUUUGACUAUCUAUUAUUA [JR_ExcTryptoA_Sub009] | 61.4 | 87.1 | 68.7 | 83 | 54
UACUAUAGUGAUGUUAUAGAUAAACCAGAUACCAGUGUAACAUAACACCCUUGGCAGCUGAUGAGGGAAGUUAUCAAAAGAUAAC [AstroSTH-A#10designED4.80] | 227 | 190 | 142 | 115 | 198
GGAUCCACCAGUGAUGUUGGAGAAAACUCCAAGGAUAUGACGAAAGUCAGAAGGUGGUAGACUGGUCAAAGUCCGGUCGGAUCCA [FmnA10 U66] | 297 | 77.4 | 338 | 297 | 262
AUUAUAAAGACGGCCGCCACUGAGAGUAGUGAUGUUACUCUUUUCCUUUAGAUAUUAUAUUUUAUCAGGACCGGGUUUUUUGAUU [JR_Nu_ExcTryptoB_Sub025] | 97.3 | 86.7 | 90.3 | 88.1 | 91.9
AGGUUUUGCGGAGGAUAUGCACUGAGGAGGAGAAUAUAGUGAUGUUAUAUAAGAGGAAGGAGAAGAGUAGAAGGCCGUGAGGUUU [SSFMNB.N] | 144 | 109 | 115 | 124 | 82.1
GGUAGCAUGGCGGCCGCCACUUGCACUCGUCUUGCAUAUUGGCCUAUGAUAGUAGUGAUGUUACUAAGGACCGGGCCAUGCUACC | 266 | 173 | 194 | 178 | 255
UCCUGCAAUCGACCACGAAAGUGGAUGGAUACCAGAGUCGAAAGACUCCCUUGGCAGCCAGUGAUGUUGGAAGCAGGUAAAUAAA [#SwitchBubble 17 #K4Late] | 364 | 359 | 445 | 288 | 406
AUGGUUGUCGUAGGAUAUGUAGGAUAUUCUAAAAUAUGAAGUGAUGUUUCUAUAAUAAGAAGAAGGACAGAAGGACGAUAACCAC [FmnBS 1 - SaraBot transfer #DoubleAptamer] | 90.4 | 104 | 114 | 89.3 | 108
GGAUCCACCAGUGAUGUUGGAGAAAACUUCAAGGAUAUGACGAAAGUCAGAAGGUGGUAGACUGGGCAAAGUCCGGUCGGAUCCA [FmnA10 U29+G66] | 543 | 228 | 296 | 402 | 274
